The record followed here is patent US20120164688A1.

Experiment [1] deals with human nerve growth factor (NGF) (human) (UniProt P01138). The experiment can be described thus: BIACORE SPR. In general terms: Surface plasmon resonance follows binding to a sensor surface in real time, without labels.
Experiment [2] deals with mouse NGF (mNGF) (mouse) (UniProt P01139). Description: BIACORE SPR.
The target of experiment [3] is rat NGF (rNGF) (rat) (UniProt P25427). Description: BIACORE SPR.
The target of experiment [4] is human nerve growth factor (NGF) (human) (UniProt P01138). Description: cell-based or functional assay.
The target in experiment [5] is human neurotrophin-3 (NT-3) (human) (UniProt P20783). Description: cell-based or functional assay.
The target in experiment [6] is human nerve growth factor (NGF) (human) (UniProt P01138). Description: BIACORE SPR; purified mAb.
The target in experiment [7] is mouse NGF (mNGF) (mouse) (UniProt P01139). The experiment can be described thus: BIACORE SPR; purified mAb.
In experiment [8] the target is rat NGF (rNGF) (rat) (UniProt P25427). Description: BIACORE SPR; purified mAb.
Experiment [9] deals with human neurotrophin-3 (NT-3) (human) (UniProt P20783). The experiment can be described thus: BIACORE SPR; NT-3 1.25 nM to 40 nM.
Experiment [10] addresses human nerve growth factor (NGF) (human) (UniProt P01138). The experiment can be described thus: BIACORE SPR; mAb captured, 20 nM NGF.
Experiment [11] addresses human neurotrophin-3 (NT-3) (human) (UniProt P20783). The experiment can be described thus: BIACORE SPR; mAb captured, 20 nM NT-3.
The target of experiment [12] is human nerve growth factor (NGF) (human) (UniProt P01138). Description: BIACORE SPR; complex dissociation half-life.
Experiment [13] has the same target. Description: BIACORE SPR; mAb captured, human NGF injected.
Experiment [14] has the same target. The experiment can be described thus: BIACORE blocking; % free NGF bound to p75-hFc chip.
Experiment [15] has the same target. Description: BIACORE blocking; % free NGF bound to TrkA-hFc chip.
Experiment [16] addresses human neurotrophin-3 (NT-3) (human) (UniProt P20783). The experiment can be described thus: BIACORE; 20 nM NT-3 + 500 nM agent, % NT-3 bound to p75-hFc chip.
Experiment [17] shares this target. Description: BIACORE; 20 nM NT-3 + 500 nM agent, % NT-3 bound to TrkA-hFc chip.
Experiment [18] shares this target. Description: BIACORE; 20 nM NT-3 + 500 nM agent, % NT-3 bound to TrkB-hFc chip.
Experiment [19] shares this target. The experiment can be described thus: BIACORE; 20 nM NT-3 + 500 nM agent, % NT-3 bound to TrkC-hFc chip.
The target of experiment [20] is human nerve growth factor (NGF) (human) (UniProt P01138). Description: BIACORE blocking; negative control, % free NGF bound to p75-hFc chip.
Experiment [21] shares this target. The experiment can be described thus: BIACORE blocking; negative control, % free NGF bound to TrkA-hFc chip.
Experiment [22] deals with human neurotrophin-3 (NT-3) (human) (UniProt P20783). The experiment can be described thus: BIACORE; 20 nM NT-3 + 500 nM agent, % NT-3 bound to p75-hFc chip (reference).
For experiment [23] the target is unchanged. Description: BIACORE; 20 nM NT-3 + 500 nM agent, % NT-3 bound to TrkA-hFc chip (reference).
Experiment [24] has the same target. Description: BIACORE; 20 nM NT-3 + 500 nM agent, % NT-3 bound to TrkB-hFc chip (reference).
Experiment [25] shares this target. Description: BIACORE; 20 nM NT-3 + 500 nM agent, % NT-3 bound to TrkC-hFc chip (reference).

Sequence of human nerve growth factor (NGF) (human) (P01138 122-241 limits assumed): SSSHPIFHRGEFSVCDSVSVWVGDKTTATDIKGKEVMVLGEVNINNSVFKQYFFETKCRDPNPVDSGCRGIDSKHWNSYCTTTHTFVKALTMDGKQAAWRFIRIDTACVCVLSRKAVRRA
Sequence of human neurotrophin-3 (NT-3) (human) (P20783 139-257 limits assumed): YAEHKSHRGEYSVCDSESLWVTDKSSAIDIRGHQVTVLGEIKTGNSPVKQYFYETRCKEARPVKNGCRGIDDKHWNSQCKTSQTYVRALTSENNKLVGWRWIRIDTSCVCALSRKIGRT
Sequence of rat NGF (rNGF) (rat) (P25427 122-241 limits assumed): as the sequence (P01138 122-241 limits assumed) above, with S3T, I6V, R9M, M37T, D60A, D65E, M92T, G94D, V117A, A120G counted along it
Sequence of mouse NGF (mNGF) (mouse) (P01139 122-241 limits assumed): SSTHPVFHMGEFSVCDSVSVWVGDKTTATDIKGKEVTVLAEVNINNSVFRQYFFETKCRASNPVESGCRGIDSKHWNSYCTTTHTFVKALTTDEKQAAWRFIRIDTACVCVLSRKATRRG

The term Kd denotes the constant that tells how readily two partners part at equilibrium. Read a low Kd as higher affinity. Regarding “humanized anti-human NGF monoclonal antibody E3 ("RN624") (tanezumab; CAS Registry No. 880266-57-9)”, the dissociation constant Kd is 1.25 pM in [1]; 1.4 pM with mouse NGF (mNGF) (mouse) [2]; 1.5 pM with rat NGF (rNGF) (rat) [3]; 1.25 pM in [6]; 1.4 pM with mouse NGF (mNGF) (mouse) [7]; 1.51 pM with rat NGF (rNGF) (rat) [8]. Further, the Kd in experiment [9] was 1100 pM; in experiment [10], 1.3 pM; in experiment [11], 1100 pM; in experiment [13] it was 1.3 pM. Moreover, the IC50 (pM), PC12 SRE-luciferase in experiment [4] turned out to be 4.9 pM. In addition, in experiment [4], the MG87 IC50 is less than 186 pM. Besides, the PC12 IC50 in experiment [4] was 21 pM. Further, in experiment [5], the IC50, HEK293-TrkC SRE-luciferase was in the range of 150000 to 200000 pM. In experiment [5], this substance yielded an IC50, PC12 SRE-luciferase with 75 nM NT-3 of 105000 pM. The t1/2 in experiment [6] and in [12] was 35 h in each case. This substance had a % Binding p75-hFc in [14] of 16%. The substance also displayed a % Binding TrkA-hFc in [15] of 10%. For the same substance, the % binding in [16] was 19%; in [17], 7%; in experiment [18], 8%; in experiment [19], 8%.
Take “IgG1 control (AVASTIN®; Genentech, CA) (antibody)”: the % Binding p75-hFc in experiment [20] was determined as 116%. For the same substance, in experiment [21], the % Binding TrkA-hFc came to 116%. In addition, the % binding in experiment [22], in experiment [23], in experiment [24] and in experiment [25] was 100% each time.
